Source: patent US6410775
Bridge positions count the residues as written; N and C are the ends. Square brackets hold non-standard residues; d marks the D form. Ends that are not written are not given here. NMeL = CN[C@@H](CC(C)C)C(=O)O; Phg = N[C@H](C(=O)O)c1ccccc1; NMeV = CN[C@H](C(=O)O)C(C)C; Orn = NCCC[C@H](N)C(=O)O; ATU = not defined here; Aib = CC(C)(N)C(=O)O; Sar = CNCC(=O)O

B1: 3G3 N-Me amino acids 3: CL-nG-VLGKLC (peptide)
peptide: CL[Sar]VLGKLC
modifications: not fully specified (bridges); cysteine pairing not given here
B2: 3G3 others 3: … TGR resin (peptide)
peptide: CLGVLGKLC
modifications: not fully specified; "TGR resin" printed after the C-terminus
B3: 3G3 D amino acids 10: CLG-dV-dL-GKLC (peptide)
peptide: CLG[dV][dL]GKLC
modifications: not fully specified (bridges); cysteine pairing not given here
B4: HHTE, LJP 703 (cyclic thioether analog of 3G3, Hc-LGVLGKL-Hc) (peptide)
peptide: XLGVLGKLX
modifications: homocysteine (Hc) at positions 1 and 9; cyclic thioether
B5: 3G3 D amino acids 1: dP-… (peptide)
peptide: [dP]CLGVLGKLC
modifications: not fully specified (bridges); cysteine pairing not given here
B6: 3G3 Ala scan 1: … (peptide)
peptide: CAGVLGKLC
B7: 3G3 N-Me amino acids 4: CLG-nV-LGKLC (peptide)
peptide: CLG[NMeV]LGKLC
modifications: not fully specified (bridges); cysteine pairing not given here
B8: 3G3 conformational scan 30: CLGVLG-aiB-LC (peptide)
peptide: CLGVLG[Aib]LC
modifications: not fully specified (bridges); printed as CLGVLG-aiB-LC; cysteine pairing not given here
B9: 3G3 D amino acids 6: CLGVLGK-dL-C (peptide)
peptide: CLGVLGK[dL]C
modifications: not fully specified (bridges); cysteine pairing not given here
B10: 3G3 D amino acids 18: CLGVLG-dK-dL-C (peptide)
peptide: CLGVLG[dK][dL]C
modifications: not fully specified (bridges); cysteine pairing not given here
B11: CHTE, LJP 702 (cyclic thioether analog of 3G3, C-LGVLGKL-Hc) (peptide)
peptide: CLGVLGKLX
modifications: homocysteine (Hc) at position 9; cyclic thioether
B12: 3G3 Gly scan 1: … (peptide)
peptide: CGGVLGKLC
B13: 3G3 N-Me amino acids 5: CLGV-nL-GKLC (peptide)
peptide: CLGV[NMeL]GKLC
modifications: not fully specified (bridges); cysteine pairing not given here
B14: 3G3 conformational scan 11 (Pro scan): … (peptide)
peptide: CPGVLGKLC
B15: 3G3 conformational scan 12 (Pro scan): … (peptide)
peptide: CLPVLGKLC
B16: 3G3 others 2: Y-ATU-… (peptide)
peptide: {Tyr-ATU}-CLGVLGKLC
modifications: not fully specified (bridges); printed as Y-ATU-CLGVLGKLC; cysteine pairing not given here; reading uncertain
B17: 3G3 D amino acids 4: CLGV-dL-GKLC (peptide)
peptide: CLGV[dL]GKLC
modifications: not fully specified (bridges); cysteine pairing not given here
B18: 3G3 conformational scan 13 (Pro scan): … (peptide)
peptide: CLGPLGKLC
B19: 3G3 conformational scan 31: CLGVLGK-aiB-C (peptide)
peptide: CLGVLGK[Aib]C
modifications: not fully specified (bridges); printed as CLGVLGK-aiB-C; cysteine pairing not given here
B20: 3G3 conformational scan 21: CLGV-pG-GKLC (peptide)
peptide: CLGV[Phg]GKLC
modifications: not fully specified (bridges); printed as CLGV-pG-GKLC; cysteine pairing not given here
B21: 3G3 truncation 4: … (peptide)
peptide: CLGVLGKLCPG
B22: 3G3 Ala scan 2: … (peptide)
peptide: CLAVLGKLC
B23: 3G3 Gly scan 5: … (peptide)
peptide: CLGVLGKGC
B24: 3G3 Ala scan 7: … (peptide)
peptide: CLGVLGKAC
B25: LJP 690 … (peptide)
peptide: CLGVLGKLC
modifications: disulfide 1-9 (inferred)
B26: 3G3 D amino acids 5: CLGVLG-dK-LC (peptide)
peptide: CLGVLG[dK]LC
modifications: not fully specified (bridges); cysteine pairing not given here
B27: 3G3 N-Me amino acids 6: CLGVL-nG-KLC (peptide)
peptide: CLGVL[Sar]KLC
modifications: not fully specified (bridges); cysteine pairing not given here
B28: 3G3 conformational scan 26: CL-aiB-VLGKLC (peptide)
peptide: CL[Aib]VLGKLC
modifications: not fully specified (bridges); printed as CL-aiB-VLGKLC; cysteine pairing not given here
B29: 3G3 conformational scan 20: CLG-pG-LGKLC (peptide)
peptide: CLG[Phg]LGKLC
modifications: not fully specified (bridges); printed as CLG-pG-LGKLC; cysteine pairing not given here
B30: 3G3 branched aliphatic 2: … (peptide)
peptide: CVGVLGKLC
B31: 3G3 N-Me amino acids 8: CLGVLGK-nL-C (peptide)
peptide: CLGVLGK[NMeL]C
modifications: not fully specified (bridges); cysteine pairing not given here
B32: 3G3 conformational scan 15 (Pro scan): … (peptide)
peptide: CLGVLPKLC
B33: 3G3 truncation 5: … (as printed) (peptide)
peptide: AGPCLGVLGKLCG
B34: 3G3 Ala scan 5: … (peptide 925) (peptide)
peptide: CLGVLAKLC
B35: 3G3 conformational scan 18: C-pG-GVLGKLC (peptide)
peptide: C[Phg]GVLGKLC
modifications: not fully specified (bridges); cysteine pairing not given here
B36: 3G3 conformational scan 17 (Pro scan): … (peptide)
peptide: CLGVLGKPC
B37: 3G3 D amino acids 22: CLGVL-dA-KLC (peptide)
peptide: CLGVL[dA]KLC
modifications: not fully specified (bridges); cysteine pairing not given here
B38: 3G3 conformational scan 19: CL-pG-VLGKLC (peptide)
peptide: CL[Phg]VLGKLC
modifications: not fully specified (bridges); cysteine pairing not given here
B39: 3G3 truncation 2: … (peptide)
peptide: GPCLGVLGKLCPG
B40: 3G3 Ala scan 3: … (peptide)
peptide: CLGALGKLC
B41: 3G3 basic amino acid 2: CLGVLG-Or-LC (peptide)
peptide: CLGVLG[Orn]LC
modifications: not fully specified (bridges); cysteine pairing not given here
B42: 3G3 branched aliphatic 1: … (peptide)
peptide: CIGVLGKLC
B43: 3G3 D amino acids 21: CLGVLG-dL-dL-C (peptide)
peptide: CLGVLG[dL][dL]C
modifications: not fully specified (bridges); cysteine pairing not given here
B44: HCTE, LJP 699 (cyclic thioether analog of 3G3, Hc-LGVLGKL-C) (peptide)
peptide: XLGVLGKLC
modifications: homocysteine (Hc) at position 1; cyclic thioether
B45: 3G3 truncation 3: … (peptide)
peptide: PCLGVLGKLCPG
B46: 3G3 conformational scan 29: CLGVL-aiB-KLC (peptide)
peptide: CLGVL[Aib]KLC
modifications: not fully specified (bridges); printed as CLGVL-aiB-KLC; cysteine pairing not given here
B47: CCTE, LJP 698 (cyclic thioether analog of 3G3, C-LGVLGKL-C) (peptide)
peptide: CLGVLGKLC
modifications: cyclic thioether in place of the disulfide
B48: 3G3 conformational scan 27: CLG-aiB-LGKLC (peptide)
peptide: CLG[Aib]LGKLC
modifications: not fully specified (bridges); printed as CLG-aiB-LGKLC; cysteine pairing not given here
B49: 3G3 conformational scan 24: CLGVLGK-pG-C (peptide)
peptide: CLGVLGK[Phg]C
modifications: not fully specified (bridges); printed as CLGVLGK-pG-C; cysteine pairing not given here
B50: 3G3 conformational scan 23: CLGVLG-pG-LC (peptide)
peptide: CLGVLG[Phg]LC
modifications: not fully specified (bridges); printed as CLGVLG-pG-LC; cysteine pairing not given here
B51: 3G3 conformational scan 16 (Pro scan): … (peptide)
peptide: CLGVLGPLC
B52: 3G3 others 1: …-ATU-Y (peptide)
peptide: CLGVLGKLC
modifications: not fully specified; C-terminal ATU-Y as printed (ATU linker, then Tyr)
B53: 3G3 basic amino acid 1: … (peptide)
peptide: CLGVLGRLC
B54: 3G3 conformational scan 25 (alpha Me AA): C-aiB-GVLGKLC (peptide)
peptide: C[Aib]GVLGKLC
modifications: not fully specified (bridges); printed as C-aiB-GVLGKLC; cysteine pairing not given here

Each binder was assayed against ACA-6501 aPL antibody (assay: competitive ELISA I50; antibody not given, ACA-6501 serum on CL/β2-GPI assumed (Ex. 4B)).

Point of comparison: B23, IC50 500 µg/mL. Against it:
- B1 — 7.1-fold lower, 70 µg/mL
- B2 — the same, 500 µg/mL
- B3 — 10-fold lower, 50 µg/mL
- B4 — 6.2-fold lower, 80 µg/mL
- B5 — 4.2-fold lower, 120 µg/mL
- B6 — 2.5-fold lower, 200 µg/mL
- B7 — 2.3-fold lower, 220 µg/mL
- B8 — within 1.5-fold, 460 µg/mL
- B9 — 3.6-fold lower, 140 µg/mL
- B10 — 3.3-fold lower, 150 µg/mL
- B11 — 5.4-fold lower, 92 µg/mL
- B12 — 1.6-fold lower, 310 µg/mL
- B13 — 2.8-fold lower, 180 µg/mL
- B14 — 3.1-fold lower, 160 µg/mL
- B15 — within 1.5-fold, 340 µg/mL
- B16 — 2.9-fold lower, 170 µg/mL
- B17 — 2.2-fold lower, 230 µg/mL
- B18 — 2.8-fold lower, 180 µg/mL
- B19 — not separable, > 470 µg/mL
- B20 — 14-fold lower, 35 µg/mL
- B21 — within 1.5-fold, 460 µg/mL
- B22 — 2.9-fold lower, 170 µg/mL
- B24 — within 1.5-fold, 360 µg/mL
- B25 — 50-fold lower, 10 µg/mL
- B26 — 2.9-fold lower, 170 µg/mL
- B27 — within 1.5-fold, 550 µg/mL
- B28 — 6.2-fold lower, 80 µg/mL
- B29 — 7.1-fold lower, 70 µg/mL
- B30 — 3.8-fold lower, 130 µg/mL
- B31 — 2.1-fold lower, 240 µg/mL
- B32 — within 1.5-fold, 350 µg/mL
- B33 — within 1.5-fold, 450 µg/mL
- B34 — 12-fold lower, 40 µg/mL
- B35 — 3.8-fold lower, 130 µg/mL
- B36 — within 1.5-fold, 550 µg/mL
- B37 — 3.6-fold lower, 140 µg/mL
- B38 — 7.1-fold lower, 70 µg/mL
- B39 — 2.8-fold lower, 180 µg/mL
- B40 — 1.9-fold lower, 260 µg/mL
- B41 — 12-fold lower, 40 µg/mL
- B42 — 8.3-fold lower, 60 µg/mL
- B43 — 3.6-fold lower, 140 µg/mL
- B44 — 11-fold lower, 46 µg/mL
- B45 — within 1.5-fold, 420 µg/mL
- B46 — 4.5-fold lower, 110 µg/mL
- B47 — 4.5-fold lower, 110 µg/mL
- B48 — 4.5-fold lower, 110 µg/mL
- B49 — 6.2-fold lower, 80 µg/mL
- B50 — 2.2-fold lower, 230 µg/mL
- B51 — 3.1-fold lower, 160 µg/mL
- B52 — 1.7-fold lower, 300 µg/mL
- B53 — 3.1-fold lower, 160 µg/mL
- B54 — within 1.5-fold, 370 µg/mL
